Results from the DeepSol protein solubility set.

assay: soluble on expression in E. coli; label from the status in PepcDB or PDB records

Sequence	soluble on expression in E. coli
MQLYYLGPKGTFSYLACRQYFSENEATFQPKSNLFEVIKAVADDDTSIGVVPIENSIEGTINIVADALAQQDVFAHGEIRLDINFALYGNGTDSISDIKKVYSIAPAISQTTNYIHQHQFDYDYVDSTIQSLTKIENGVAAIAPLGSGEAYGFTPIDTHIEDYPHNVTRFLVIKNQQQFDQNATSLMFLITPMHDKPGLLASVLNTFALFNINLSWIESRPLKTQLGMYRFFVQADSAITTDIKKVIAILETLDFKVEMIGAFN	soluble
MAKQELSAREAVTEAKCYLNNAKEILREKGAKTEGYYRDSKYVKMAGDTAYSGVLFVLDHYFGEKAKGRKDVDWYRINLSKEDRKMLDSFTAVYEQLHL	not soluble
MHRLKYLTGYPPQLTAQVAHLVTENRLGEVLVQRYPTVHDVRTDRALYDFTVAVKNEFMRTAQPLSRVLYDGKIHAIKNALGTHTFVSRVQGGKLKAKHEIRIASIFREAPLEFLKMIVVHELAHLKEKEHNKAFYQLCEYMEPRYHQLEFDTRLFLTQVEIAGSPYLPLEHHHHHH	soluble
MATAIAITSLLIISGCSSNVETTTVKKETMQSQQKNTETVNTTPQNFYKDITSGKIEHIHGIGYVGNVPWVSIATHSGIKVYQNGKWLETATQLHDYMGFQATKNGFFASGHPEPGANLKNPLGLMKSSDGGNTLEKLAFYGESDFHNLAVGYNTEAIYLYNERPNSKLQQGFYFSTNNGQDWKNSKLKGLSSTVHSFSVHPDQSSVVAVSTKDGVYLSTDYGNTFELFSKSLESTAVTLSNEDVIYAPINTQIVTKKSIATNEETNIQIPLLDSKDAIMYISQNPQNAAEIVFATMKANVFLSTDEGKTWKQLTKEGTLQFN	not soluble
NAIKESARLPELSLWEKIKAYFFTTHHAEALECIFNLYHHQELNLTPVQVRGAYIKLRALASQGCKEQFIIESQEHADKLIIKDDNGENILSIEVECHPEAFGLAKEINKS	soluble
NNMFSRQAPHFAVTDYDGTLQLLEDGLVLQHDGNHPLALYDYLNDKELRTNLIKTQAARADSMTCRIEAVIQSFNHRMNTNRLVADK	not soluble
MAFAKDLKRRNVLQEAVYHRIKADFDLGAQAAVRTVKKVCDAYATFKANLRAGNYGLEGSKRRIKAESKPVRFRETSAQPFDDRMLTWNLDTKMVSVWTVAGRLKGIPFVCSPEAMRLLAQRKGESDLVMRDGMFFLLATIDIPEPEVSGPDGFLGVDLGIVNIATTSDGRIMSSRQVNRYRQRKRDLRGKLQKKRTKSAARVLKRQRRKEARYATQRNHIIARKLVHTAERTSRGIGLEDLTGIRQRVTAREDQRARLHSWAFAQLGAFVEYKAKRAGVAVVHVDPRNTSRQCSECWHTHRTNRVTRARFVCRSCGIVLHADHNGSRNIAHRADAAWQRGAANRPRTPAAALEHHHHHH	not soluble
MSLSNQEPIANYKFNYKTTANKVMKNINLSGKTIIITGGYSGIGLEMTKQLSRAGAKIIIPARRMEVAKKNLSKIKNIDILPLDLTNPESIHQFAESFLQNNSKLDILINSAGLMYLPLKRDSRGIEYHFATNHLGHYQLTLELLPALKNAKISRVINLSSRAQQMTPLLEDWNFEKIENYNPQIGYQQSKTANVLFSIKLDELGKKYGIRSFAVHPGMIPMTNIGRQNSPITPWLRYLADYFKLIHIPVFFNALKSGFDRSKYRYLKTIAQGAATPLWASTSPDLEGKGGLYCEDLNIARLMTSEEANNFSGGLRPHAIDHNDADRLWQISKNITGLDEGHHHHHH	not soluble
MGSDKIHHHHHHMDAMPSTTAITVSQLSRLVGLPGVPVIIDVRIDEDFDADPRLLPASIRRDFKTVSTWAPDFAGKPVVVVCQKGLKLSQGVAAWLRHEGIPAESLEGGFEAWREADGLLVSTDKLPPRDEKGRTVWVTRSRPKVDRIACPWLIRRFVDPRAVFLFVEAAEVPAVADRFQAVPFDIDNVFWSHRGERCTFDTMIEEFGLESTALDRLAAIVRAADTARLDLVPQAAGFLAASLGLSRMFRDDLEQLEAGMLLYDAFFRWCRDATEETHNWPSAGKPS	not soluble
MGSDKIHHHHHHMAQNFHDNSQVSSEMSTAISRTAKPSSEFYSIFSEEEILGIICALEIRREIPLKYSYKGRGAKIWDDFYQKYIIPRWYRISNVEIELLKSNFKYFNDNIKSGEKINIVDVGAGNSYPVKDFVQRLNKLNKINKYVALDISEELLNLSKNNFKKWFPNVEFISSTIDIENNCVPKTLFQNNPDLEMDNTAKIFLHLGVTIGNHQNRDKVFKNFRESMGKNDFLVFTNEIGSNSKWDGNVRGGCKYHVEEIYGWVKNKVGIESEGCELVRKYDLKTDSIVANIRFNHDYTINFSRMGIDKKIEISEGEEITIWRHHKYEMPKLLQELERSGLQLIQYSTDKYKSHIMVICKISSN	not soluble
MGSDKIHHHHHHMEQDTSMITWHHSPAHLFVPNAFYIVTASTLCHQPLFNSPQKLHILQSTLFEIMQAYNWRLQAWAVFSNHYHFIAQSPEDSSSLKPLIQRFHSQTARAINVLDGSKGRKVWFQYWDTCLTYEQSYLARLNYVHNNPVKHGASRECRAVSLLFSYMV	not soluble
MSLAAHWEIAVKNSSRSAVDPFIVMDVMEAARRAEEAGRRIIHMEVGQPGTGAPRGAVEALAKSLETDALGYTVALGLPALRQRIARLYGEWYGVDLDPGRVVITPGSSGGFLLAFTALFDSGDRVGIGAPGYPSYRQILRALGLVPVDLPTAPENRLQPVPADFAGLDLAGLMVASPANPTGTMLDHAAMGALIEAAQAQGASFISDEIYHGIEYEAKAVTALELTDECYVINSFSKYFSMTGWRVGWMVVPEDQVRVVERIAQNMFICAPHASQVAALAALDCDAELQANLDVYKANRKLMLERLPKAGFTRIAPPDGAFYVYADVSDLTDDSRAFAAEILEKAGVAVTPGLDFDPERGAGTLRFSYARATADIEEGLDRLEAFMQARGEGHHHHHH	soluble
MSLEIGILDIKGSLPLFEDFGNLPTKIITENNYKEIKDLDALIIPGGSLIESKSLNDDLKKEIINFNGYIIGICSGFQILAKKIDIGRKSSVPIIKEGLGLLDVEFSPLVCTDRVEFEVKKSIFGEGKGEGFHCHTYGNIEVVDKETKILTVSKVKKLNYKLGAEKEIISGAFKGKVFGTMVHNFLDNEFVRDNFLKHLGVTEDEKEEIFEKNKIIKDELKKRALKYRLNPKLLKENNKKDVNKKRGIILLATSSNSGKTFLTTALSSKLNGRVFVAKIGGDVRDIVPALYLLREKMTKYNSIKIGERGWVDVSKFLDYIKKSDYDYIIVEGVMGAFTAALKNISSYQIAKKLGFPVYIVSACNISGIEGAFVEAMAYYSLLKDIGIKVEGVILNKVYDWNSFNKLKSLAEKHNIKLYGVGKIANESRGLIPEVEIDYESFCRNAFNVDLEIEIPEVEINNHIKDEEDNFLERLDNWMENINEGHHHHHH	soluble
MAIVSFKHKGLKLFYTTGSTKAIRPDHVKKLRVILTALTSATCPEMLKAPAFKMHPLKGELTGYYSIWVNGNWRVTFRFIGTDVELVDYQDYH	not soluble
MSVSSEISASKLPYVRIPGSKPVPRLLKWTIFKCSFMKIRTIGLHHPDGRLYFFEFCQGKDTFVPHVCSACLPIITEKDLFPDYIVWAEEIEDYVIFAFSSMSNKMEQFVYSFETRRFVEVDLPELVYNRGDATTGDIVAALYGENETIVIERDENGAMLIRSFVHKDNSRKPVNTLVMQNIEKNGLQVGKDEEVTDISNEFGYLDYVETLPELKIKTCSANRTSIHVFSKKTGRYLKYHYVINTGSFINTSNLDCSNCNSVTSEKYLLPEYSVYSKALDARVIHCTNNLTSDIEQYTFNPDTNAFEQVYCKELVYDPNRFNRASLAAYVFPENVANNGTVIISRDVYEVIQKEKYSIVTDEYVVLPAAPVKTFAVRIQEEKQKKLDEEEQQKVLKTQELEKQKDGQIVIMELEMKEMTTLLEEKDTRIKMHVEKHRDKECELELVRRKLDDCVVRMQGAFERDIKLEEAKVQASREAKKQYENLMTILGEKE	not soluble
MGSDKIHHHHHHMKKAIVLCAGKGTRLRPLTFTTAKHLIPIANKPILFYSLENIARAGIEEVGIVVSPHNAEEFKSIVGTGENFGLRISYIIQEEPKGLAHAVWVSREFLGDEDFMMYLGDNLILEDLGKFVKDFENSDYAASILLSPVKDPTRFGVAVMEGDRVIKVVEKPKTPPSNLAIVGLYLFRNKIFEGIKNIKPSWRGELEITDAIEYLIEKGEKVRGYIVYGWWKDTGKPEDLLEANRKILMETTEELLGEMDDKSSIQGPVRIGKASKIVNSVIRGPAVIGENCFIKNSYVGPYSSIGNRVILEDCEVENSIVMDECSITGVEKRIDSSILGKGVSVKGSQKRPASLNLILGNMSRVEL	not soluble
MGSDKIHHHHHHMITTARQLKDLIRNMSKKKSADAQILMRNYMMERFLERISLSEYKNQFILKGGMLVAAMVGLDARATMDLDATIKGTNVSVEDVEMIISQIISIPLDDGVSFRVKRISEIMEEADYPGVRVSMETKFDGVITPLKIDISTGDVITPREIKYKFNLMLEDRTIEVWAYNLETVLAEKLETVVSRNVTNTRMRDFYDIYILQKLYGEQLQKQVLWTALVATAKKRGTLDLIEAEDIREIFDEIESSPVMETLWKTYQKNYSYAADISWHAIVKSICALYGSILENMYNT	not soluble
MGSDKIHHHHHHADGRYIEVTGTSEIEIVPDRIHYIIEIREYFEEEFDGRSKPEEYRTKISLDRIEQGLREVLHDAGISPNAVRTQEIGDYWRKQGQDFLVAKTFDITLLDFKQIDEILKRMDTKGIHTMRIGELENKDMLSYHQKGKIAALKAAQRKASYLVEALGKKLGPVIRIVEDEAGSSLPFSQSNVLSSSVVSFDSFRTIKKKYSMLVRFEIAD	not soluble
MTSDGMDEWPTGRLLSTAARLVEHSWEDILRSQNMTHAGLICLHTIADRPASQRDIAKVSRVTDQTISRTIDRLERAGYVTRETDPLDERRKRVAITESGRAIYRRLLALEKEDAALTAAVGDVGPLREQLLLLVRSLGLPTRD	not soluble
MGSDKIHHHHHHMNDYDNNSNINEDAWNKETYSAWVKRFGTPDTAAKKISKDPSKILSVLHEKLGDVKGKKIMNIMGSNGSKAVALALLGADVTVVDFSKGNMDYALDLAKEADVKIDYILSDILKLPEDKLTADYDIVFAEMGIIHYFIDLKPFIKTINRLLKEGGLFVLRDFHPVSTKLITSRGSTAKVRKHKVTGDYFDTSLEEKDAAFSKYLIDNKEPEKVLLRKWTLGEIVTSVAEGGFKIKKLDEEPNLSCDNFDKGIPKSFTLTSEKLS	not soluble
MQEKPQEPKVVGVEILEKSGLDIKKLVDKLVKATAAEFTTYYYYTILRMHLTGMEGEGLKEIAEDARLEDRLHFELMTQRIYELGGGLPRDIRQLADISACSDAYLPENWKDPKEILKVLLEAEQCAIRTWKEVCDMTYGKDPRTYDLAQRILQEEIEHEAWFLELLYGRPSGHFRRSSPGNAPYSKK	soluble
MKFTIMSKGDQSSDTLASTMKEYLLDFGFIMDEKEPDIVISVGGDGTLLYAFHRYYNRLDETAFVGVHTGHLGFYADWLPTEVEKLVIAIAKTPFQVVEYPLLEVIIRYVNGSKESQYLAMNEATVKSAEGTLVTEVEIRGEYFETFRGDGLCISTPSGSTAYNKALGGAIIHPSIEAIQIAEMASINNRVFRTVGSPLVLPKHHTCVLKPAAGMNLQITVDHLTMVHQDVKSIQYRVANEKVRFVRFRPFPFWKRVRDSFVADKLEHHHHHH	not soluble
